Source: IntAct's records for PubMed 10814541

B1: Thioredoxin (Homo sapiens), P10599 (parent)
chain: MVKQIESKTAFQEALDAAGDKLVVVDFSATWCGPCKMIKPFFHSLSEKYSNVIFLEVDVDDCQDVASECEVKCMPTFQFFKKGQKVGEFSGANKEKLEATINELV
partner: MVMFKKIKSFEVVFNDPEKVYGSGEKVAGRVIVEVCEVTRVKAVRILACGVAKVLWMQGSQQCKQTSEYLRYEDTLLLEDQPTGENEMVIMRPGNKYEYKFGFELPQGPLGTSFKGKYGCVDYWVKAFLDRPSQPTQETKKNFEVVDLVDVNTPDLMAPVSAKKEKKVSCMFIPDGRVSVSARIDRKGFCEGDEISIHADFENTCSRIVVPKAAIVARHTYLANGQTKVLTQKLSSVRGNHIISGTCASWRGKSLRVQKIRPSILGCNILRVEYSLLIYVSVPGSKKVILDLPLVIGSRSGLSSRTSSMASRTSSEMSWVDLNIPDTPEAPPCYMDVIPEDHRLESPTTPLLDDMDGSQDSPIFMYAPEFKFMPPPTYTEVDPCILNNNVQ

Variants of: B1
Conditions: with txnip_human TXNIP

effect of a mutation on the interaction	Variant
decreasing interaction	MVKQIESKTAFQEALDAAGDKLVVVDFSATWSGPSKMIKPFFHSLSEKYSNVIFLEVDVDDCQDVASECEVKCMPTFQFFKKGQKVGEFSGANKEKLEATINELV [C32S;C35S]
